Test results from US20110256153A1 (IMMUNOGEN, published 2011).
Positions count from the first letter of the chain named. Where “and” joins values, the source holds several entries; their conditions need not be identical. Equal entries are not always repeated.

T1: human CD37 (human, UniProt P11049 1-278)
T1 sequence: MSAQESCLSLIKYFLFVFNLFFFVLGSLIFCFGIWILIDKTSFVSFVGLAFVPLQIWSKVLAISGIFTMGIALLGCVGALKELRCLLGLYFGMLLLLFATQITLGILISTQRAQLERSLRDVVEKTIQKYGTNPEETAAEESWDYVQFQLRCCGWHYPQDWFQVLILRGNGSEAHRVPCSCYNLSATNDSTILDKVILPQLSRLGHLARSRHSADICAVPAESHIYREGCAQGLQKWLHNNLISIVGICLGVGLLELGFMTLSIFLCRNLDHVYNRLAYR

T2: macaque CD37 (macaque, UniProt P11049 1-277 (human entry))
T2 construct: Expressed on 300-19 cells transfected with pSRa-CD37mac (300-19/CD37mac cells); also called macaca CD37; macaque derived CD37 antigen
T2 chain: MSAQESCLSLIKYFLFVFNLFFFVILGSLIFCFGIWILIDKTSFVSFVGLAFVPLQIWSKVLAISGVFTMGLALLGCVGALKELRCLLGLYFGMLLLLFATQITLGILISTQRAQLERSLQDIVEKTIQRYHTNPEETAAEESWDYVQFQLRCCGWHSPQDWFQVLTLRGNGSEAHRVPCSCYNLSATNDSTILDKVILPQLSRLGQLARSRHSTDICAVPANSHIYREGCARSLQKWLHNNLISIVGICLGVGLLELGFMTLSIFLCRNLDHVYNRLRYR

T3: hCD37-M45 (human/murine chimera, UniProt P11049 1-281)
T3 construct: stably expressed on 300-19 cells; also called hCD37-M45 variant
T3 chain: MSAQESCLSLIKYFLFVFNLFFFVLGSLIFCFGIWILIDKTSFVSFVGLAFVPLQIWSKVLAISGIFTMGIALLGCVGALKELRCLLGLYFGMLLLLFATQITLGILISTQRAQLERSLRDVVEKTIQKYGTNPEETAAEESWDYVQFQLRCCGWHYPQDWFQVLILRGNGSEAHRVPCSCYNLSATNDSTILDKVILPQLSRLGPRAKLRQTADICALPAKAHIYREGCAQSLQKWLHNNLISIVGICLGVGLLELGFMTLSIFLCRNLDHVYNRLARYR

T4: hCD37-M1 (human/murine chimera, UniProt P11049 1-281)
T4 construct: stably expressed on 300-19 cells; also called hCD37-M1 variant
T4 chain: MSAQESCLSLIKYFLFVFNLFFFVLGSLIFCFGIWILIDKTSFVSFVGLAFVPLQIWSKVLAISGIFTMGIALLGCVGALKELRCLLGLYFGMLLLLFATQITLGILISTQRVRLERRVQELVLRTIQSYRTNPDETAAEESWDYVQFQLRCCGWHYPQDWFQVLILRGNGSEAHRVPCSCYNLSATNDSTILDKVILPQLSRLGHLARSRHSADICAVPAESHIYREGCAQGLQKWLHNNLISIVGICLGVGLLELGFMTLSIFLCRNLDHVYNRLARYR

T5: hCD37-M3 (human/murine chimera, UniProt P11049 1-281)
T5 construct: stably expressed on 300-19 cells; also called hCD37-M3 variant
T5 chain: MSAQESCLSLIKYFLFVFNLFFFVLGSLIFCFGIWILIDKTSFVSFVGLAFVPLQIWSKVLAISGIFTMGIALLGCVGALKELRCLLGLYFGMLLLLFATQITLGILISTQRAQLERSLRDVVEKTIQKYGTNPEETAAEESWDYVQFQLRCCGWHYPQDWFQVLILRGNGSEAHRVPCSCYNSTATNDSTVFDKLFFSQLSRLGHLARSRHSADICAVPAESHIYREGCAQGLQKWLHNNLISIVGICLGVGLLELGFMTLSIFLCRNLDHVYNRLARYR

B1: huCD37-3-PEG4-mal-DM1 (antibody, human IgG1, kappa, V domains shown)
VH: QVQVQESGPGLVAPSQTLSITCTVSGFSLTTSGVSWVRQPPGKGLEWLGVIWGDGSTNYHPSLKSRLSIKKDHSKSQVFLKLNSLTAADTATYYCAKGGYSLAHWGQGTLVTVSS
VL: DIQMTQSPSSLSVSVGERVTITCRASENIRSNLAWYQQKPGKSPKLLVNVATNLADGVPSRFSGSGSGTDYSLKINSLQPEDFGTYYCQHYWGTTWTFGQGTKLEIKR
modifications: DM1 attached through PEG4-mal linker; attachment residues not stated; 3.5-4 maytansinoid molecules per antibody
notes: heavy chain version as for huCD37-3, see its note
B2: huCD37-50-SMCC-DM1 (antibody, human IgG1, kappa, V domains shown)
VH: QVQLQESGPGLLKPSQSLSLTCTVSGYSITSGFAWHWIRQHPGNKLEWMGYILYSGSTVYSPSLKSRISITRDTSKNHFFLQLNSVTAADTATYYCARGYYGYGAWFAYWGQGTLVTVSA
VL: EIVLTQSPATMSASPGERVTMTCSATSSVTYMHWYQQKPGQSPKRWIYDTSNLPYGVPARFSGSGSGTSYSLTISSMEAEDAATYYCQQWSDNPPTFGQGTKLEIKR
modifications: DM1 attached through SMCC linker; attachment residues and load not stated
notes: SMCC-DM1 conjugate of huCD37-50
B3: huCD37-51 (antibody, human IgG1, kappa, V domains shown)
VH: EVQLVESGPEVLKPGESLSLTCTVSGYSISSGFAWHWIRQFPGKGLEWMGYIHYSGSTNYSPSLQGRISITRDSSINQFFLQLNSVTASDTATYYCARGYYGFGAWFVYWGQGTLVTVSA
VL: B2 VL with N52K, P54A, Y55S, D92S
notes: Humanized antibody
B4: huCD37-50 (antibody, human IgG1, kappa, V domains shown)
VH: B2 VH
VL: B2 VL
notes: Resurfaced (humanized) antibody
B5: huCD37-51-SMCC-DM1 (antibody, human IgG1, kappa, V domains shown)
VH: B3 VH
VL: B2 VL with N52K, P54A, Y55S, D92S
modifications: DM1 attached through SMCC linker; attachment residues and load not stated
notes: SMCC-DM1 conjugate of huCD37-51
B6: huCD37-50-PEG4-mal-DM1 (antibody, human IgG1, kappa, V domains shown)
VH: B2 VH
VL: B2 VL
modifications: DM1 attached through PEG4-mal linker; attachment residues and load not stated
notes: PEG4-mal-DM1 conjugate of huCD37-50
B7: huCD37-57-SMCC-DM1 (antibody, human IgG1, kappa, V domains shown)
VH: B2 VH with H41F, N44K, K45G, H78Q
VL: B2 VL with K44R, P54A, Y55S
modifications: DM1 attached through SMCC linker; attachment residues and load not stated
notes: SMCC-DM1 conjugate of huCD37-57
B8: huCD37-57 (antibody, human IgG1, kappa, V domains shown)
VH: B2 VH with H41F, N44K, K45G, H78Q
VL: B2 VL with K44R, P54A, Y55S
notes: Humanized antibody
B9: huCD37-56-SMCC-DM1 (antibody, human IgG1, kappa, V domains shown)
VH: QVQLQESGPGLVKPSQSLSLTCTVSGYSITSGFAWHWIRQFPGKGLEWMGYIHYSGGTNYNPSLKSRVSITRDTSKNQFFLQLNSVTAADTATYYCARGYYGFGAWFAYWGQGTLVPVSA
VL: DIVLTQSPAFMSASPGEKVTMTCSASSSVTYMHWYQQKPDQSPKRWIYDTSNLASGVPSRFSGGGSGTDYSLTISSMEAEDAATYYCQQWISDPPTFGQGTKLEIKR
modifications: DM1 attached through SMCC linker; attachment residues and load not stated
notes: SMCC-DM1 conjugate of huCD37-56
B10: muCD37-38 (antibody, mouse IgG1, kappa, V domains shown)
VH: DVQLQESGPDLVKPSQSLSLTCTVTGYSITSGFGWHWIRQFPGNKLEWMAYILYSGGTDYNPSLKSRISITRDTSKNQFFLRLSSVTTEDTATYYCARGYYGYGAWFVYWGQGTLVTVSA
VL: B9 VL with D1Q, F10I, P39S, D40G, Q41T, N52K, S59A, D69S, D93N, Q99G
notes: Murine hybridoma antibody
B11: huCD37-56 (antibody, human IgG1, kappa, V domains shown)
VH: B9 VH
VL: B9 VL
notes: Humanized antibody

What was measured:
human CD37 [1] = molecular target: T1, human CD37; assay: cell-based or functional assay
human CD37 [2] = molecular target: T1, human CD37; assay: flow cytometry titration; apparent Kd; cells not named
human CD37 [3] = molecular target: T1, human CD37; assay: flow cytometry titration on BJAB cells; apparent Kd
Protocol: (§1) Binding specificity was tested by flow cytometry using purified antibodies. […] All murine antibodies were incubated for 3 h with either CD37-expressing 300-19 cells or the non-transfected 300-19 cells (1×10⁵ cells per sample) in 100 μL FACS buffer (RPMI-1640 medium supplemented with 2% normal goat serum). Then, the cells were pelleted, washed, and incubated for 1 h with 100 μL of FITC-conjugated goat anti-mouse IgG-antibody (Jackson Laboratory, 6 μg/mL in FACS buffer). The cells were pelleted again, washed with FACS buffer and resuspended in 200 μL of PBS containing 1% formaldehyde. Samples were acquired using a FACSCalibur flow cytometer with the HTS multiwell sampler or a FACS array flow cytometer and analyzed using CellQuest Pro (all from BD Biosciences, San Diego, US).
The humanized antibodies huCD37-38, huCD37-50, huCD37-51, huCD37-56 and chCD37-57 were assayed for their binding affinity to BJAB cells in comparison to their murine counterparts. Flow cytometry binding assays were carried out using secondary FITC-conjugated goat-anti-murine and -anti-human antibodies, analyzed as described in Example 2 and dose-response curves were generated by non-linear regression for each antibody. The value for the apparent dissociation constant (Kd) of each antibody was calculated using GraphPad Prism v4 (GraphPad software, San Diego, Calif.).

macaque CD37 [4] = molecular target: T2, macaque CD37; assay: flow cytometry titration on 300-19/CD37mac cells; apparent Kd
Protocol: as §1
Flow cytometry binding assays were carried out using secondary FITC-conjugated goat-anti-human antibodies, analyzed as described in Example 2 and dose-response curves were generated by non-linear regression for each antibody. The value for the apparent dissociation constant (Kd) of each antibody was calculated using GraphPad Prism v4 (GraphPad software, San Diego, Calif.).

macaque CD37 [5] = molecular target: T2, macaque CD37; assay: flow cytometry, 300-19/CD37mac cells
Protocol: as §1
The murine antibodies muCD37-3, muCD37-12, muCD37-38, […], muCD37-51, muCD37-56 and muCD37-57 were assayed for their ability to bind to 300-19/CD37mac cells expressing macaque CD37. Flow cytometry binding assays were carried out using secondary FITC-conjugated goat-anti-murine or goat-anti-human antibodies, analyzed as described in Example 2. Binding was compared to the previously described anti-CD37 antibody WR17 and the anti-CD37 SMIP TRU-016. […] In contrast, muCD37-3, muCD37-12, the previously described anti-CD37 antibody WR17 and the anti-CD37 SMIP TRU-016 are unable to bind the macaque derived CD37 antigen.

hCD37-M45 = molecular target: T3, hCD37-M45; assay: flow cytometry, 300-19 cells expressing hCD37-M45
Protocol: as §1
(§2) Binding of various CD37 antibodies to cells expressing human CD37 wildtype and variants was analyzed by flow cytometry using 1.5 μg/mL of each antibody. The isolated antibodies of this invention were compared to commercially available CD37 antibody WR17, as well as the TRU-016 SMIP. […] Likewise, all antibodies tested bound the hCD37-M3 variant (FIG. 18B). In contrast, the isolated antibodies of this invention bound the hCD37-M1 variant, while TRU-016 and WR17 were unable to bind hCD37-M1 variant (FIG. 19A). The CD37-50 and CD37-51 antibodies and TRU-016 were also able to bind the hCD37-M45 variant. […] In contrast, the CD37-3, CD37-12, CD37-38, CD37-56 and CD37-57 antibodies require at least one of the AA residues in the hCD37-M45 variant that were changed to the corresponding murine AA residues for binding to the CD37 antigen.

hCD37-M1 = molecular target: T4, hCD37-M1; assay: flow cytometry, 300-19 cells expressing hCD37-M1, 1.5 µg/mL antibody
Protocol: as §1, §2

hCD37-M3 = molecular target: T5, hCD37-M3; assay: flow cytometry, 300-19 cells expressing hCD37-M3, 1.5 µg/mL antibody
Protocol: as §1, §2

Binder | Kd (human CD37 [2]) | EC50 of in vitro cytotoxicity, WST-8 assay, Daudi cells (human CD37 [1]) | Kd (human CD37 [3]) | Kd (macaque CD37 [4]) | also measured
B1 | 0.35 nM | – | – | – | EC50 of in vitro cytotoxicity, BJAB cells (human CD37 [1]): 0.01 nM; EC50 of in vitro cytotoxicity, Daudi cells (human CD37 [1]): 0.018 nM; EC50 of in vitro cytotoxicity, Granta-519 cells (human CD37 [1]): 0.012 nM; EC50 of in vitro cytotoxicity, Namalwa cells (human CD37 [1]): 0.024 nM; EC50 of in vitro cytotoxicity, Raji cells (human CD37 [1]): 0.045 nM; EC50 of in vitro cytotoxicity, Raji-VCR cells (human CD37 [1]): 0.037 nM; EC50 of in vitro cytotoxicity, Ramos cells (human CD37 [1]): 0.069 nM; EC50 of in vitro cytotoxicity, SU-DHL-4 cells (human CD37 [1]): 0.024 nM
B2 | 0.7 nM | 0.13 nM | – | – | EC50 of in vitro cytotoxicity, WST-8 assay, Granta-519 cells (human CD37 [1]): 0.12 nM
B3 | 2 nM | – | 0.8 nM | 14 nM | –
B4 | 0.43 nM and 0.68 nM | – | 0.2 nM | 1.8 nM | –
B5 | 1.6 nM | 0.2 nM | – | – | EC50 of in vitro cytotoxicity, WST-8 assay, Granta-519 cells (human CD37 [1]): 0.25 nM
B6 | 1.1 nM | – | – | – | –
B7 | 0.34 nM | 0.35 nM | – | – | –
B8 | 0.3 nM | – | – | 2 nM | –
B9 | 0.34 nM | 0.31 nM | – | – | –
B10 | – | – | 0.4 nM | – | binding result (macaque CD37 [5]): binds; binding result (hCD37-M45): no binding (tested: 1.5 µg/mL); binding result (hCD37-M1): binds; binding result (hCD37-M3): binds
B11 | 0.3 nM | – | 0.2 nM | 5 nM | –
